Laboratory results published in patent publication US11419921B2, “Methods of treating neurological disorders” (EnClear Therapies, Inc., priority 2018, dated 2022).

Tested on: (GR)10
Assay: Cleavage of (GR)10 by enzymes in solution (PBS with CaCl2 and MgCl2), LC/MS of GR repeats
Format: biochemical
Conditions: (GR)10 50 μM
Protocol: • (GR)10 dipeptide (also (GR)8, (GR)6, (GR)4, (GR)2) were synthetized by solid-phase synthesis by CanPeptide; All peptides are uncapped and supplied lyophilized with TFA as counter ions. Purity was always above 95%. • Buffer: PBS buffer containing CaCl2 and MgCl2. • Stock solution of enzyme (e.g., 10 mg/mL) (prepared per manufacturer instructions) in PBS. Activators added as necessary. • Working solution of protein of the desired concentration (e.g., 100 μg/mL) prepared immediately before use by diluting the stock solution (e.g., 5 μL of 10 mg/mL stock solution) in PBS buffer (e.g., in 495 μL of PBS). Exemplary Procedure Using 50 μM Concentrations of (GR)10
25 μL of a 100 μM solution of (GR)10 was added to each well of a 96-well plate. 25 μL of a solution of enzyme (two times the desired final enzyme concentration) was added, and the plates were incubated at room temperature. At the specified time points (5 minutes, 10 minutes, 30 minutes, 60 minutes, and 180 minutes) 2.5 μL of a 10% TFA solution were added to stop the reaction. For the time 0 min well, the TFA was added to the well before addition of the enzyme. After last time point, all samples were further diluted with 150 μL of dilution solution. The quenched reaction mixtures were analyzed by LC/MS to determine the concentration of GR repeats of different lengths.
The chromatography and mass spectrometry conditions utilized are shown in Table 2 and Table 3, respectively.

B1: Proteinase K: protease that cleaves peptide bonds adjacent to the carboxylic group of aliphatic and aromatic amino acids (protein)
chain: AAQTNAPWGLARISSTSPGTSTYYYDESAGQGSCVYVIDTGIEASHPEFEGRAQMVKTYYYSSRDGNGHGTHCAGTVGSRTYGVAKKTQLFGVKVLDDNGSGQYSTIIAGMDFVASDKNNRNCPKGVVASLSLGGGYSSSVNSAAARLQSSGVMVAVAAGNNNADARNYSPASEPSVCTVGASDRYDRRSSFSNYGSVLDIFGPGTSILSTWIGGSTRSISGTSMATPHVAGLAAYLMTLGKTTAASACRYIADTANKGDLSNIPFGTVNLLAYNNYQA
For B1, the “(GR)1 concentration” value (enzyme 0.25 μg/mL, 0 min) was “BLQ”, the “(GR)2 concentration” value (enzyme 0.25 μg/mL, 0 min) was “BLQ” and the “(GR)4 concentration” value (enzyme 0.25 μg/mL, 0 min) was “BLQ”. The “(GR)6 concentration” value (enzyme 0.25 μg/mL, 0 min) was “BLQ”, the “(GR)8 concentration” value (enzyme 0.25 μg/mL, 0 min) was 0.3 µM and the “(GR)10 concentration” value (enzyme 0.25 μg/mL, 0 min) was 44.9 µM. For the same molecule, the “(GR)1 concentration” value (enzyme 0.25 μg/mL, 2.5 min) was “BLQ”, the “(GR)2 concentration” value (enzyme 0.25 μg/mL, 2.5 min) was “BLQ” and the “(GR)4 concentration” value (enzyme 0.25 μg/mL, 2.5 min) was “BLQ”. The “(GR)6 concentration” value (enzyme 0.25 μg/mL, 2.5 min) was “BLQ”, the “(GR)8 concentration” value (enzyme 0.25 μg/mL, 2.5 min) was “BLQ” and the “(GR)10 concentration” value (enzyme 0.25 μg/mL, 2.5 min) was 55.8 µM. The “(GR)1 concentration” value (enzyme 0.25 μg/mL, 5 min) was 0.1 µM, the “(GR)2 concentration” value (enzyme 0.25 μg/mL, 5 min) was “BLQ” and the “(GR)4 concentration” value (enzyme 0.25 μg/mL, 5 min) was “BLQ”. The “(GR)6 concentration” value (enzyme 0.25 μg/mL, 5 min) was “BLQ”, the “(GR)8 concentration” value (enzyme 0.25 μg/mL, 5 min) was “BLQ” and the “(GR)10 concentration” value (enzyme 0.25 μg/mL, 5 min) was 54.4 µM. For the same molecule, the “(GR)1 concentration” value (enzyme 0.25 μg/mL, 10 min) was 0.2 µM, the “(GR)2 concentration” value (enzyme 0.25 μg/mL, 10 min) was “BLQ” and the “(GR)4 concentration” value (enzyme 0.25 μg/mL, 10 min) was “BLQ”. For the same molecule, the “(GR)6 concentration” value (enzyme 0.25 μg/mL, 10 min) was “BLQ”, the “(GR)8 concentration” value (enzyme 0.25 μg/mL, 10 min) was “BLQ” and the “(GR)10 concentration” value (enzyme 0.25 μg/mL, 10 min) was 50.3 µM. The “(GR)1 concentration” value (enzyme 0.25 μg/mL, 30 min) was 0.6 µM, the “(GR)2 concentration” value (enzyme 0.25 μg/mL, 30 min) was 0.2 µM and the “(GR)4 concentration” value (enzyme 0.25 μg/mL, 30 min) was 0.1 µM. The “(GR)6 concentration” value (enzyme 0.25 μg/mL, 30 min) was “BLQ”, the “(GR)8 concentration” value (enzyme 0.25 μg/mL, 30 min) was 0.3 µM and the “(GR)10 concentration” value (enzyme 0.25 μg/mL, 30 min) was 55.1 µM. The “(GR)1 concentration” value (enzyme 0.25 μg/mL, 60 min) was 1.0 µM, the “(GR)2 concentration” value (enzyme 0.25 μg/mL, 60 min) was 0.3 µM and the “(GR)4 concentration” value (enzyme 0.25 μg/mL, 60 min) was “BLQ”. For the same molecule, the “(GR)6 concentration” value (enzyme 0.25 μg/mL, 60 min) was “BLQ”, the “(GR)8 concentration” value (enzyme 0.25 μg/mL, 60 min) was 0.3 µM and the “(GR)10 concentration” value (enzyme 0.25 μg/mL, 60 min) was 56.3 µM. For the same molecule, the “(GR)1 concentration” value (enzyme 10 μg/mL, 0 min) was “BLQ”, the “(GR)2 concentration” value (enzyme 10 μg/mL, 0 min) was “BLQ” and the “(GR)4 concentration” value (enzyme 10 μg/mL, 0 min) was “BLQ”. The “(GR)6 concentration” value (enzyme 10 μg/mL, 0 min) was “BLQ”, the “(GR)8 concentration” value (enzyme 10 μg/mL, 0 min) was “BLQ” and the “(GR)10 concentration” value (enzyme 10 μg/mL, 0 min) was 49.4 µM. The “(GR)1 concentration” value (enzyme 10 μg/mL, 2.5 min) was 3.0 µM, the “(GR)2 concentration” value (enzyme 10 μg/mL, 2.5 min) was 0.5 µM and the “(GR)4 concentration” value (enzyme 10 μg/mL, 2.5 min) was 0.6 µM. For the same molecule, the “(GR)6 concentration” value (enzyme 10 μg/mL, 2.5 min) was 0.5 µM, the “(GR)8 concentration” value (enzyme 10 μg/mL, 2.5 min) was 0.6 µM and the “(GR)10 concentration” value (enzyme 10 μg/mL, 2.5 min) was 55.4 µM. For the same molecule, the “(GR)1 concentration” value (enzyme 10 μg/mL, 5 min) was 5.3 µM, the “(GR)2 concentration” value (enzyme 10 μg/mL, 5 min) was 0.8 µM and the “(GR)4 concentration” value (enzyme 10 μg/mL, 5 min) was 1.3 µM. The “(GR)6 concentration” value (enzyme 10 μg/mL, 5 min) was 0.8 µM, the “(GR)8 concentration” value (enzyme 10 μg/mL, 5 min) was 1.3 µM and the “(GR)10 concentration” value (enzyme 10 μg/mL, 5 min) was 48.8 µM. The “(GR)1 concentration” value (enzyme 10 μg/mL, 10 min) was 11.9 µM, the “(GR)2 concentration” value (enzyme 10 μg/mL, 10 min) was 1.4 µM and the “(GR)4 concentration” value (enzyme 10 μg/mL, 10 min) was 2.9 µM. The “(GR)6 concentration” value (enzyme 10 μg/mL, 10 min) was 2.2 µM, the “(GR)8 concentration” value (enzyme 10 μg/mL, 10 min) was 2.6 µM and the “(GR)10 concentration” value (enzyme 10 μg/mL, 10 min) was 44.1 µM. The “(GR)1 concentration” value (enzyme 10 μg/mL, 30 min) was 44.8 µM, the “(GR)2 concentration” value (enzyme 10 μg/mL, 30 min) was 5.7 µM and the “(GR)4 concentration” value (enzyme 10 μg/mL, 30 min) was 9.5 µM. For the same molecule, the “(GR)6 concentration” value (enzyme 10 μg/mL, 30 min) was 5.2 µM, the “(GR)8 concentration” value (enzyme 10 μg/mL, 30 min) was 3.5 µM and the “(GR)10 concentration” value (enzyme 10 μg/mL, 30 min) was 16.6 µM. The “(GR)1 concentration” value (enzyme 10 μg/mL, 60 min) was 64.1 µM, the “(GR)2 concentration” value (enzyme 10 μg/mL, 60 min) was 10.1 µM and the “(GR)4 concentration” value (enzyme 10 μg/mL, 60 min) was 13.6 µM. For the same molecule, the “(GR)6 concentration” value (enzyme 10 μg/mL, 60 min) was 6.6 µM, the “(GR)8 concentration” value (enzyme 10 μg/mL, 60 min) was 5.7 µM and the “(GR)10 concentration” value (enzyme 10 μg/mL, 60 min) was 10.6 µM.
